Experiments:
[1] = target: human melanocortin-4 receptor (human) (UniProt P32245); test: competition with [125I]-NDP-alpha-MSH, CHO-K1 cell membranes
[2] = target: human melanocortin-5 receptor (human) (UniProt P33032); test: as above
[3] = target: human melanocortin-3 receptor (human) (UniProt P41968); test: as above
[4] = target: human melanocortin-1 receptor (human) (UniProt Q01726); test: as above
[5] = target: human melanocortin-4 receptor (human) (UniProt P32245); test: cell-based or functional assay
[6] = target: human melanocortin-5 receptor (human) (UniProt P33032); test: cell-based or functional assay
[7] = target: human melanocortin-3 receptor (human) (UniProt P41968); test: cell-based or functional assay
[8] = target: human melanocortin-1 receptor (human) (UniProt Q01726); test: cell-based or functional assay

Sequence of human melanocortin-5 receptor (human) (P33032 whole entry): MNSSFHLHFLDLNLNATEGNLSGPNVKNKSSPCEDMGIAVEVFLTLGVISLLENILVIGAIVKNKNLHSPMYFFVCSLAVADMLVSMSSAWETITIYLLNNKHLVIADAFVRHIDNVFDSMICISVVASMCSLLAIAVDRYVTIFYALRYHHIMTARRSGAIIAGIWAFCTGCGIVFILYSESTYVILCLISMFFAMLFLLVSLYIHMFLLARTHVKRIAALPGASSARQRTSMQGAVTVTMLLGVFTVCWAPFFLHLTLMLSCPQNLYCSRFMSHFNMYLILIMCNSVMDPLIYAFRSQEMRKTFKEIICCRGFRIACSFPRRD
Sequence of human melanocortin-3 receptor (human) (P41968 whole entry): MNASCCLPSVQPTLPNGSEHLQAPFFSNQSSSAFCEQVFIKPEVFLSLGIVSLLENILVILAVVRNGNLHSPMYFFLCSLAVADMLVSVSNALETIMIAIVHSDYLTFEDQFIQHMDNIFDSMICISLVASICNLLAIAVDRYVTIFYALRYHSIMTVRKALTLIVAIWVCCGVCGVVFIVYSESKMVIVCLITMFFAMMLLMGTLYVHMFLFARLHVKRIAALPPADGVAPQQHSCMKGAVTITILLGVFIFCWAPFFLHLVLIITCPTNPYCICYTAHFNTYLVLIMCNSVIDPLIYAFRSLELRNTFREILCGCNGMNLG
Sequence of human melanocortin-1 receptor (human) (Q01726 whole entry): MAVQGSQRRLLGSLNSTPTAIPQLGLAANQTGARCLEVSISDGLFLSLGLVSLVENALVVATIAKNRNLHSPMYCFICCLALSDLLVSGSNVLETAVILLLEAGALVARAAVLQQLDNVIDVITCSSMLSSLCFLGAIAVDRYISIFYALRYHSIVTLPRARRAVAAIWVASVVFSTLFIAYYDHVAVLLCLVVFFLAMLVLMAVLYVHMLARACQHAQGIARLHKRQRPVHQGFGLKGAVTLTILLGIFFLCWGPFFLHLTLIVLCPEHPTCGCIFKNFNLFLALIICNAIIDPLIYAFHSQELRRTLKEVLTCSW
Sequence of human melanocortin-4 receptor (human) (P32245 whole entry): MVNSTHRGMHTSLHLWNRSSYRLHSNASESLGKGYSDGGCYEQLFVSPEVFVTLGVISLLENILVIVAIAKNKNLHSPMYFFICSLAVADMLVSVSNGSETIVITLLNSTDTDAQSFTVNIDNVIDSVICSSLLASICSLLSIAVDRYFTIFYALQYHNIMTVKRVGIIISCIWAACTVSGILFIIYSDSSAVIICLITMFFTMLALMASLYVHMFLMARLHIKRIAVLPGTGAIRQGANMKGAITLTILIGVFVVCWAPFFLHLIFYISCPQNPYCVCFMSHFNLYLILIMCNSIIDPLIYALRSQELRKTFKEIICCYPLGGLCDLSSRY

Substance	Ki [1] [nM]	Ki [2] [nM]	Ki [3] [nM]	Ki [4] [nM]	EC50, intracellular cyclic AMP (cAMP) levels [5] [nM]	EC50, intracellular cyclic AMP (cAMP) levels [6] [nM]	EC50, intracellular cyclic AMP (cAMP) levels [7] [nM]	EC50, intracellular cyclic AMP (cAMP) levels [8] [nM]
Hydantoin(C(O)-(Nle-Gly))-cyclo(Cys-D-Ala-His-D-Phe-Arg-Trp-Pen)-NH2 (peptide)	3.53	27.1	–	12.9	–	–	–	–
cyclo[Hydantoin(C(O)-(Asp-A3c))-D-2-Nal-Arg-Trp-Lys]-NH2 (peptide)	420	2880	1920	7570	–	–	–	–
cyclo[Hydantoin(C(O)-(Asp-A5c))-D-2-Nal-Arg-Trp-Lys]-NH2 (peptide)	–	–	2390	9940	–	–	–	–
cyclo[Hydantoin(C(O)-(Asp-Apc))-D-2-Nal-Arg-Trp-Lys]-NH2 (peptide)	266	–	2760	1280	–	–	–	–
cyclo[Hydantoin(C(O)-(Asp-D-Ala))-His-D-Phe-Arg-Trp-Orn]-NH2 (peptide)	7.81	6400	576	37.7	–	–	88.6	–
cyclo[Hydantoin(C(O)-(Glu-D-Ala))-His-D-Phe-Arg-Trp-Dab]-NH2 (peptide)	12.7	877	90.5	28	–	–	–	–
cyclo[Hydantoin(C(O)-(Glu-D-Ala))-His-D-Phe-Arg-Trp-Dap]-NH2 (peptide)	4.97	–	863	16.4	–	–	–	–
cyclo[Hydantoin(C(O)-(Glu-D-Ala))-His-D-Phe-Arg-Trp-Dap]-NH2 (peptide; unit assumed)	–	–	–	–	0.182	> 10000	18.2	56.7
cyclo[Hydantoin(C(O)-(Glu-D-Ala))-His-D-Phe-Arg-Trp-Orn]-NH2 (peptide; unit assumed)	–	–	–	–	4.94	–	39.2	–

The remaining lines, values ahead:

Ki [1] [nM]	Ki [2] [nM]	Ki [3] [nM]	Ki [4] [nM]	EC50, intracellular cyclic AMP (cAMP) levels [5] [nM]	EC50, intracellular cyclic AMP (cAMP) levels [6] [nM]	EC50, intracellular cyclic AMP (cAMP) levels [7] [nM]	EC50, intracellular cyclic AMP (cAMP) levels [8] [nM]	Substance
2.95	2260	124	9.49	–	–	–	–	Hydantoin(C(O)-(D-Arg-Gly))-cyclo(Cys-Glu-His-D-Phe-Arg-Trp-Cys)-NH2 (peptide)
–	–	–	–	0.16	2710	17.1	18	Hydantoin(C(O)-(D-Arg-Gly))-cyclo(Cys-Glu-His-D-Phe-Arg-Trp-Cys)-NH2 (peptide; unit assumed)
1.77	4540	78	4.3	–	–	–	–	Hydantoin(C(O)-(Gly-D-Arg))-cyclo(Cys-Glu-His-D-Phe-Arg-Trp-Cys)-NH2 (peptide)
–	–	–	–	0.125	7440	10.3	12.9	Hydantoin(C(O)-(Gly-D-Arg))-cyclo(Cys-Glu-His-D-Phe-Arg-Trp-Cys)-NH2 (peptide; unit assumed)
–	–	–	–	0.584	352	21.5	17	Hydantoin(C(O)-(Nle-Gly))-cyclo(Cys-D-Ala-His-D-Phe-Arg-Trp-Pen)-NH2 (peptide; unit assumed)
16.5	451	1480	2170	–	–	–	–	cyclo[Hydantoin(C(O)-(Asp-A6c))-D-2-Nal-Arg-Trp-Lys]-NH2 (peptide)
35.8	1160	2630	9030	–	–	–	–	cyclo[Hydantoin(C(O)-(Asp-Aic))-D-2-Nal-Arg-Trp-Lys]-NH2 (peptide)
19.9	–	1820	66.6	–	–	–	–	cyclo[Hydantoin(C(O)-(Asp-D-Ala))-His-D-Phe-Arg-Trp-Dap]-NH2 (peptide)
–	–	–	–	2.12	–	49.3	–	cyclo[Hydantoin(C(O)-(Asp-D-Ala))-His-D-Phe-Arg-Trp-Dap]-NH2 (peptide; unit assumed)
–	–	–	–	4.5	9300	–	56.6	cyclo[Hydantoin(C(O)-(Asp-D-Ala))-His-D-Phe-Arg-Trp-Orn]-NH2 (peptide; unit assumed)
–	–	–	200	–	–	–	–	cyclo[Hydantoin(C(O)-(Asp-His))-D-2-Nal-Arg-Trp-Lys]-NH2 (peptide)
52.4	–	2840	60.4	–	–	–	–	cyclo[Hydantoin(C(O)-(Glu-D-Ala))-His-D-Phe-Arg-Trp-Orn]-NH2 (peptide)

Source: patent publication US20210163536A1
